Experimental data published in patent publication US20250002588A1 (DIAGONAL THERAPEUTICS, published 2025).
Where a chain is given by its changes, count along the chain named.

B1: DGL266 (bispecific antibody)
chain 1: EVQLLESGGGLVQPGGSLRLSCAASGFTFSIYAMSWVRQAPGKGLEWVSAISGSGGSTYYADSVKGRFTISRDNSKNTLYLQMNSLRAEDTAVYYCARDFDYWGQGTLVTVTSSGGGGSGGGGSGGGGSQSVLTQPPSASGTPGQRVTISCSGSSSNIGSNYVYWYQQLPGTAPKLLIYGNINRPSGVPDRFSGSKSGTSASLAISGLRSEDEADYYCAAWDDSLNGRVFGGGTKLTVLGGGGSGGGGSGGGGSGVECPPCPAPPVAGPSVFLFPPKPKDTLMISRTPEVTCVVVDVSHEDPEVQFNWYVDGVEVHNAKTKPREEQFNSTFRVVSVLTVVHQDWLNGKEYKCKVSNKGLPAPIEKTISKTKGQPREPQVYTLPPCREEMTKNQVSLWCLVKGFYPSDIAVEWESNGQPENNYKTTPPMLDSDGSFFLYSKLTVDKSRWQQGNVFSCSVMHEALHNHYTQKSLSLSPG
chain 2: EVQLLESGGGLVQPGGSLRLSCAASGFTFSNAWMNWVRQAPGKGLEWVSSISSSSSYIYYADSVKGRFTISRDNSKNTLYLQMNSLRAEDTAVYYCARAVAAGGMFWGLDQWGQGTLVTVTSSGGGGSGGGGSGGGGSQSVLTQPPSASGTPGQRVTISCSGSRSNIGSNSVHWYQQLPGTAPKLLIYGNSNRPSGVPDRFSGSKSGTSASLAISGLRSEDEADYYCQSYDSSLNDHVVFGGGTKLTVLGGGGSGGGGSGGGGSGVECPPCPAPPVAGPSVFLFPPKPKDTLMISRTPEVTCVVVDVSHEDPEVQFNWYVDGVEVHNAKTKPREEQFNSTFRVVSVLTVVHQDWLNGKEYKCKVSNKGLPAPIEKTISKTKGQPREPQVCTLPPSREEMTKNQVSLSCAVKGFYPSDIAVEWESNGQPENNYKTTPPMLDSDGSFFLVSKLTVDKSRWQQGNVFSCSVMHEALHNHYTQKSLSLSPG
B2: PRO004 (bispecific antibody)
chain: EVQLLESGGGLVQPGGSLRLSCAASGFTFSNAWMNWVRQAPGKGLEWVSSISSSSSYIYYADSVKGRFTISRDNSKNTLYLQMNSLRAEDTAVYYCARAVAAGGMFWGLDQWGQGTLVTVTSSGGGGSGGGGSGGGGSQSVLTQPPSASGTPGQRVTISCSGSRSNIGSNSVHWYQQLPGTAPKLLIYGNSNRPSGVPDRFSGSKSGTSASLAISGLRSEDEADYYCQSYDSSLNDHVVFGGGTKLTVLDKTHTCPPCPAPEAAGAPSVFLFPPKPKDTLMISRTPEVTCVVVDVSHEDPEVKFNWYVDGVEVHNAKTKPREEQYNSTYRVVSVLTVLHQDWLNGKEYKCKVSNKALPAPIEKTISKAKGQPREPQVYTLPPSRDELTKNQVSLTCLVKGFYPSDIAVEWESNGQPENNYKTTPPVLDSDGSFFLYSKLTVDKSRWQQGNVFSCSVMHEALHNHYTQKSLSLSPGGGGGSGGGGSEVQLLESGGGLVQPGGSLRLSCAASGFTFSIYAMSWVRQAPGKGLEWVSAISGSGGSTYYADSVKGRFTISRDNSKNTLYLQMNSLRAEDTAVYYCARDFDYWGQGTLVTVTSSGGGGSGGGGSGGGGSQSVLTQPPSASGTPGQRVTISCSGSSSNIGSNYVYWYQQLPGTAPKLLIYGNINRPSGVPDRFSGSKSGTSASLAISGLRSEDEADYYCAAWDDSLNGRVFGGGTKLTVL
B3: PRO006 (bispecific antibody)
chain: EVQLLESGGGLVQPGGSLRLSCAASGFTFSDYYMTWIRQAPGKGLEWVSSISGGSTYYADSRKGRFTISRDNSENTLYLQMNSLRAEDTAVYYCARDFGVAGWFGQYGMDVWGQGTLVTVSSGGGGSGGGGSGGGGSQSVLTQPPSASGTPGQRVTISCTGSSSNIGAGYDVHWYQQLPGTAPKLLIYRSNQRPSGVPDRFSGSKSGTSASLAISGLRSEDEADYYCSSYAGNYNLVFGGGTKLTVLDKTHTCPPCPAPEAAGAPSVFLFPPKPKDTLMISRTPEVTCVVVDVSHEDPEVKFNWYVDGVEVHNAKTKPREEQYNSTYRVVSVLTVLHQDWLNGKEYKCKVSNKALPAPIEKTISKAKGQPREPQVYTLPPSRDELTKNQVSLTCLVKGFYPSDIAVEWESNGQPENNYKTTPPVLDSDGSFFLYSKLTVDKSRWQQGNVFSCSVMHEALHNHYTQKSLSLSPGGGGGSGGGGSEVQLLESGGGLVQPGGSLRLSCAASGFTFSSYAMSWVRQAPGKGLEWVANINQDGSEKNYVDSMRGRFTISRDNSKNTLYLQMNSLRAEDTAVYYCAREFDYWGQGTLVTVTSSGGGGSGGGGSGGGGSQSVLAQPPSASGTPGQRVTISCSGSSSNIGSNYVYWYQQLPGTAPKLLIYGNNKRPSGVPDRFSGSKSGTSASLAISGLRSEDEADYYCAAWDDSLNGRVFGGGTKLTVL
B4: PRO003 (bispecific antibody)
chain: EVQLLESGGGLVQPGGSLRLSCAASGFTFSIYAMSWVRQAPGKGLEWVSAISGSGGSTYYADSVKGRFTISRDNSKNTLYLQMNSLRAEDTAVYYCARDFDYWGQGTLVTVTSSGGGGSGGGGSGGGGSQSVLTQPPSASGTPGQRVTISCSGSSSNIGSNYVYWYQQLPGTAPKLLIYGNINRPSGVPDRFSGSKSGTSASLAISGLRSEDEADYYCAAWDDSLNGRVFGGGTKLTVLDKTHTCPPCPAPEAAGAPSVFLFPPKPKDTLMISRTPEVTCVVVDVSHEDPEVKFNWYVDGVEVHNAKTKPREEQYNSTYRVVSVLTVLHQDWLNGKEYKCKVSNKALPAPIEKTISKAKGQPREPQVYTLPPSRDELTKNQVSLTCLVKGFYPSDIAVEWESNGQPENNYKTTPPVLDSDGSFFLYSKLTVDKSRWQQGNVFSCSVMHEALHNHYTQKSLSLSPGGGGGSGGGGSEVQLLESGGGLVQPGGSLRLSCAASGFTFSNAWMNWVRQAPGKGLEWVSSISSSSSYIYYADSVKGRFTISRDNSKNTLYLQMNSLRAEDTAVYYCARAVAAGGMFWGLDQWGQGTLVTVTSSGGGGSGGGGSGGGGSQSVLTQPPSASGTPGQRVTISCSGSRSNIGSNSVHWYQQLPGTAPKLLIYGNSNRPSGVPDRFSGSKSGTSASLAISGLRSEDEADYYCQSYDSSLNDHVVFGGGTKLTVL
B5: PRO005 (bispecific antibody)
chain: EVQLLESGGGLVQPGGSLRLSCAASGFTFSSYAMSWVRQAPGKGLEWVANINQDGSEKNYVDSMRGRFTISRDNSKNTLYLQMNSLRAEDTAVYYCAREFDYWGQGTLVTVTSSGGGGSGGGGSGGGGSQSVLAQPPSASGTPGQRVTISCSGSSSNIGSNYVYWYQQLPGTAPKLLIYGNNKRPSGVPDRFSGSKSGTSASLAISGLRSEDEADYYCAAWDDSLNGRVFGGGTKLTVLDKTHTCPPCPAPEAAGAPSVFLFPPKPKDTLMISRTPEVTCVVVDVSHEDPEVKFNWYVDGVEVHNAKTKPREEQYNSTYRVVSVLTVLHQDWLNGKEYKCKVSNKALPAPIEKTISKAKGQPREPQVYTLPPSRDELTKNQVSLTCLVKGFYPSDIAVEWESNGQPENNYKTTPPVLDSDGSFFLYSKLTVDKSRWQQGNVFSCSVMHEALHNHYTQKSLSLSPGGGGGSGGGGSEVQLLESGGGLVQPGGSLRLSCAASGFTFSDYYMTWIRQAPGKGLEWVSSISGGSTYYADSRKGRFTISRDNSENTLYLQMNSLRAEDTAVYYCARDFGVAGWFGQYGMDVWGQGTLVTVSSGGGGSGGGGSGGGGSQSVLTQPPSASGTPGQRVTISCTGSSSNIGAGYDVHWYQQLPGTAPKLLIYRSNQRPSGVPDRFSGSKSGTSASLAISGLRSEDEADYYCSSYAGNYNLVFGGGTKLTVL
B6: DGL893 (bispecific antibody)
chain 1: not shown
chain 2: EVQLLESGGGLVQPGGSLRLSCAASGFTFSDYYMTWIRQAPGKGLEWVSSISGGSTYYADSRKGRFTISRDNSENTLYLQMNSLRAEDTAVYYCARDFGVSGWFGQYGMDVWGQGTLVTVSSGGGGSGGGGSGGGGSQSVLTQPPSASGTPGQRVTISCTGSSSNIGAGYDVHWYQQLPGTAPKLLIYRSNQRPSGVPDRFSGSKSGTSASLAISGLRSEDEADYYCSSYAGNYNLVFGGGTKLTVLDKTHTCPPCPAPEAAGAPSVFLFPPKPKDTLMISRTPEVTCVVVDVSHEDPEVKFNWYVDGVEVHNAKTKPREEQYNSTYRVVSVLTVLHQDWLNGKEYKCKVSNKALPAPIEKTISKAKGQPREPQVCTLPPSRDELTKNQVSLSCAVKGFYPSDIAVEWESNGQPENNYKTTPPVLDSDGSFFLVSKLTVDKSRWQQGNVFSCSVMHEALHNHYTQKSLSLSPGWSHPQFEK
B7: DGL896 (bispecific antibody)
chain 1: not shown
chain 2: B6 chain 2 with Y33W, S55T
B8: DGL895 (bispecific antibody)
chain 1: not shown
chain 2: B6 chain 2 with S55T, S101A
B9: DGL901 (bispecific antibody)
chain 1: not shown
chain 2: B6 chain 2
B10: DGL898 (bispecific antibody)
chain 1: not shown
chain 2: B6 chain 2 with Y33W, S101A
B11: DGL900 (bispecific antibody)
chain 1: not shown
chain 2: B6 chain 2 with Y33W, S55T
B12: DGL897 (bispecific antibody)
chain 1: not shown
chain 2: B6 chain 2
B13: DGL899 (bispecific antibody)
chain 1: not shown
chain 2: B6 chain 2 with S55T, S101A
B14: DGL894 (bispecific antibody)
chain 1: not shown
chain 2: B6 chain 2 with Y33W, S101A
B15: DGL902 (bispecific antibody)
chain 1: not shown
chain 2: B6 chain 2 with Y33W, S101A
B16: DGL903 (bispecific antibody)
chain 1: not shown
chain 2: B6 chain 2 with S55T, S101A

Molecular target: T1, ALK-1/BMPR-2 receptor pair of the PathHunter U2Os dimerization cells (DiscoverX 93-0962C3) (UniProt P37023 22-503; Q13873 27-1038)
Test: cell-based or functional assay
Target sequence in this assay (P37023 22-503, chain 1 of 2): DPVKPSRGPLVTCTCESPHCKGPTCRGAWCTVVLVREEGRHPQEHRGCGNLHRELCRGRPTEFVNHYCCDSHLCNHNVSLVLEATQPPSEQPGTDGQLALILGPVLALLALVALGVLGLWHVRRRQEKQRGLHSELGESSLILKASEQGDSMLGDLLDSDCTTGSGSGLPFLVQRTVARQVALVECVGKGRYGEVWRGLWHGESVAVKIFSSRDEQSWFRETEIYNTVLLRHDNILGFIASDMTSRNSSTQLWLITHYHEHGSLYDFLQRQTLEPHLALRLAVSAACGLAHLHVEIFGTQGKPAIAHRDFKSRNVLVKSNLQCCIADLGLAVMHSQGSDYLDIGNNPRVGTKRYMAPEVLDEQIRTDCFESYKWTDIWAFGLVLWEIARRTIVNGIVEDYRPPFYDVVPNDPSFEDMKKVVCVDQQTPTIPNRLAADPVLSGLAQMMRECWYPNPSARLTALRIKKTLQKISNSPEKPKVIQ
Target sequence in this assay (Q13873 27-1038, chain 2 of 2): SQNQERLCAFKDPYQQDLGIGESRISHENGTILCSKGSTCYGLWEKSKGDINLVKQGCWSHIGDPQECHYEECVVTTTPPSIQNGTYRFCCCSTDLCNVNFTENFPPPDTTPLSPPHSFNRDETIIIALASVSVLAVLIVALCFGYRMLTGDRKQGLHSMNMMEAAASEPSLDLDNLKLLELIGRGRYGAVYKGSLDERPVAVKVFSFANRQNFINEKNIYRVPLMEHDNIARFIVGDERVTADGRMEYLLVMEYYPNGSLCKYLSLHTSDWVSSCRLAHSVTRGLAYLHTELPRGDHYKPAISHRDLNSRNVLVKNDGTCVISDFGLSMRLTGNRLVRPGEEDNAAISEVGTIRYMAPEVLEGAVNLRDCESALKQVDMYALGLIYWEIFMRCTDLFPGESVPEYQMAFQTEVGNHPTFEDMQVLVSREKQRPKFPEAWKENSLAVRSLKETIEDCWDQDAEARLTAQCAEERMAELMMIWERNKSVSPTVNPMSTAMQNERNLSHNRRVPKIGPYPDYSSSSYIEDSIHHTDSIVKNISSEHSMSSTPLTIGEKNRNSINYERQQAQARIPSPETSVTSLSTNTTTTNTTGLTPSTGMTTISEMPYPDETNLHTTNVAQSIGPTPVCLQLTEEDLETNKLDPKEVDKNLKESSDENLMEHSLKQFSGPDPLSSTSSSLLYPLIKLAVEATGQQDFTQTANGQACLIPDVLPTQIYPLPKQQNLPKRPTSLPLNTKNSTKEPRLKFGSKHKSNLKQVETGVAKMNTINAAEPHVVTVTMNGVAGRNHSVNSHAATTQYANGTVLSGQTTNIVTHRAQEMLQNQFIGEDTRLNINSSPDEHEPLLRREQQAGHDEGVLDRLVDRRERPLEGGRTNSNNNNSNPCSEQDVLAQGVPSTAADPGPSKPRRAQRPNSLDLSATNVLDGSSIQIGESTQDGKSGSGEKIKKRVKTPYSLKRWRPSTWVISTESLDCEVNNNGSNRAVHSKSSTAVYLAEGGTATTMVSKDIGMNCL

Point of comparison: B2, “% Emax BMP9” value 46%. Against it:
- B1 — lower, 39%
- B3 — lower, 35%
- B4 — higher, 47%
- B5 — lower, 35%

Point of comparison: B1, “EC50” value 2 nM. Against it:
- B2 — 4-fold lower, 0.5 nM
- B3 — 20-fold lower, 0.1 nM
- B4 — 20-fold lower, 0.1 nM
- B5 — 27-fold lower, 0.075 nM

Point of comparison: B3, “Emax (RLU)” value 929000 RLU. Against it:
- B1 — higher, 1.04e+06 RLU
- B2 — higher, 1.21e+06 RLU
- B4 — higher, 1.25e+06 RLU
- B5 — higher, 931000 RLU

Molecular target: T1, ALK-1/BMPR-2 receptor pair of the …
Test: cell-based or functional assay
Remark: another data set of the same source

Point of comparison: B14, “% Emax BMP9” value 14%. Against it:
- B6 — higher, 20%
- B7 — lower, 10%
- B8 — higher, 26%
- B9 — higher, 29%
- B10 — higher, 19%
- B11 — lower, 12%
- B12 — higher, 26%
- B13 — higher, 30%
- B15 — higher, 19%
- B16 — higher, 34%

Point of comparison: B16, “Emax (RLU)” value 918000 RLU. Against it:
- B6 — lower, 552000 RLU
- B7 — lower, 282000 RLU
- B8 — lower, 715000 RLU
- B9 — lower, 800000 RLU
- B10 — lower, 509000 RLU
- B11 — lower, 333000 RLU
- B12 — lower, 701000 RLU
- B13 — lower, 812000 RLU
- B14 — lower, 383000 RLU
- B15 — lower, 529000 RLU
